T1: Verrocchio (Ver), wild type, Flag-tagged (D. melanogaster, UniProt Q9VTZ2 1-214)
T1 construct: Verrocchio (Ver), Terminin subunit of D. melanogaster; also called wild-type Ver; source: Arctic express cells (DE3), co-expressed with Moi-HA from a bicistronic pET vector; cell lysate, heparin-sepharose fractions, anti-FLAG M2 eluate; not shown: Flag, N-terminal, kept
T1 sequence (looked up): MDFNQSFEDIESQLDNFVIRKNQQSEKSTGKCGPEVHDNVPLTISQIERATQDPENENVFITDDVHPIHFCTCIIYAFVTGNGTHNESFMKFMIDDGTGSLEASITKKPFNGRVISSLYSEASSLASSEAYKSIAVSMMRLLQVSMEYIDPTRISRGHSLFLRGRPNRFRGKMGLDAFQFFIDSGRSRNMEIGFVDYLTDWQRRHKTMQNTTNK


Columns and labels:
[1] = test system: Ver (wild type);Moi (Drosophila melanogaster;Drosophila melanogaster); assay: pull-down; details: reference; BLI and EMSA: PBS (137 mM NaCl, 2.7 mM KCl, 10 mM Na2HPO4, 1.8 mM KH2PO4) + 0.05% Tween 20, EMSA 15 min at room temperature, 20 fmol ssDNA; pull-down: 4 C …
[2] = test system: Ver (wild type);Moi (Drosophila melanogaster;Drosophila melanogaster); assay: BLI; details: PBS + 0.05% Tween 20, BLI and EMSA: PBS (137 mM NaCl, 2.7 mM KCl, 10 mM Na2HPO4, 1.8 mM KH2PO4) + 0.05% Tween 20, EMSA 15 min at room temperature, 20 fmol ssDNA, pull-down: 4 C …
[3] = target: M1-Ver (Ver with the Group 1 uncharacterized helices deleted), Flag-tagged (D. melanogaster) (UniProt Q9VTZ2); assay: co-IP; Flag immune-affinity purification: heparin-sepharose fractions loaded on anti-FLAG M2 affinity matrix, washed with buffer I (25 mM Tris HCl pH 7.5, 100 mM NaCl, 1 mM CaCl2, 1 mM MgCl2) or PBS, eluted with 3× Flag peptide
[4] = target: M3-Ver (Ver with the putative DNA binding surface, Group 3, partially deleted), Flag-tagged (D. melanogaster) (UniProt Q9VTZ2); assay: as above
[5] = target: T1, Verrocchio (Ver), wild type, Flag-tagged; assay: as above; details: partners not purified

stoichiometry N [3] | stoichiometry N [4] | stoichiometry N [5] | Molecule | binding signal (fraction of Moi eluted from ssDNA) [1] | Kd ([2]; Kd1, heterogeneous ligand (2:1) model) | Kd ([2]; Kd2, heterogeneous ligand (2:1) model)
 |  |  | 80 nt ssDNA | 1 | 129 nM | 1570 nM
1 | 1 | ~1 | Modigliani (Moi), HA-tagged at the C-terminus (natural protein, D. melanogaster, UniProt B7Z0L8 1-178, looked up, DTL/Modigliani (Moi), Terminin subunit of D. melanogaster; also called DTL; source: Arctic express cells (DE3), co-expressed with Ver from a bicistronic pET vector; cell lysate, heparin-sepharose fractions, anti-FLAG M2 eluate; not shown: HA, C-terminal, kept) MSLVPEASTSRAPKYCYFFKTLLVEELELETSYHNLHYGQCALIGRLAFKANQYRLENVRVKCLPKKYSLGEGTVSLLILGLTHDKVVENRVSTGRYCIVRGEVVLHNVQHPKGAKLTAGGVYDKINSLSNDPLAQKQYLSALLATYRPAIDLWYIQVIDRAEDLLTRRLEMRSLIEK |  |  | 

— PMC8596017, “Evolutionary mode for the functional preservation of fast-evolving Drosophila telomere capping proteins” (Open Biology, 2021)
